This is an account of results in PMC7567689, “High-level expression of aryl-alcohol oxidase 2 from Pleurotus eryngii in Pichia pastoris for production of fragrances and bioactive precursors” (Applied Microbiology and Biotechnology, 2020).

Data set [1] concerns T1, OCc1ccc2c(c1)OCO2.
T1 construct: no tag mentioned
Put plainly: purified protein. The data set is classed as biochemical, Pleurotus eryngii. To be noted: 100 mM sodium phosphate pH 6.0, 25 °C, O2 as co-substrate, glycosylated enzyme.

Data set [2] relates to T2, OC/C=C/c1ccccc1.
T2 construct: no tag mentioned
Put plainly: purified protein. The data set is classed as biochemical, Pleurotus eryngii. To be noted: 100 mM sodium phosphate pH 6.0, 25 °C, O2 as co-substrate, glycosylated enzyme, substrate in DMSO.

The subject of data set [3] is T3, C/C=C/C=C/CO.
T3 construct: no tag mentioned
Put plainly: purified protein. The following applies: 100 mM sodium phosphate pH 6.0, 25 °C, O2 as co-substrate, glycosylated enzyme. The data set is classed as biochemical, Pleurotus eryngii.

In data set [4] the test system is T4, OCc1ccccc1.
T4 construct: no tag mentioned
Put plainly: purified protein. The data set is classed as biochemical, Pleurotus eryngii. To be noted: 100 mM sodium phosphate pH 6.0, 25 °C, O2 as co-substrate, glycosylated enzyme.

The target of data set [5] is T5, PeAAO2 (Pleurotus eryngii, UniProt D3YBH4).
T5 construct: no tag mentioned
T5 sequence (D3YBH4 28-593 limits assumed): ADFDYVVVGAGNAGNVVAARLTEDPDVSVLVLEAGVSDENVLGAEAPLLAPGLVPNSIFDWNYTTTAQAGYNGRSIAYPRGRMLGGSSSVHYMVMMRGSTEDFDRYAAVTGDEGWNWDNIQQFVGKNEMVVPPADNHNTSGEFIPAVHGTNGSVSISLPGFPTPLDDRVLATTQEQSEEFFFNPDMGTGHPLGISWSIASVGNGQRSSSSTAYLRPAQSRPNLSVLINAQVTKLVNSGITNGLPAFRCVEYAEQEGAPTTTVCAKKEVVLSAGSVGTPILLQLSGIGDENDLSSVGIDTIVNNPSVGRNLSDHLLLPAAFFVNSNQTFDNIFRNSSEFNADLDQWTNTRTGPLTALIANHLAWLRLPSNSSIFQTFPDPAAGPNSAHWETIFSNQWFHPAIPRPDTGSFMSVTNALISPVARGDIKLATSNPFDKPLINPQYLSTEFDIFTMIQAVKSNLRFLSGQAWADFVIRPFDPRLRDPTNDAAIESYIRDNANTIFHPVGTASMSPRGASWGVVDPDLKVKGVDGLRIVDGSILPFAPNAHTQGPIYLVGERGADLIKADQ
Put plainly: direct UV assay of cuminaldehyde formation at […] nm, Michaelis-Menten fit. The data set is classed as biochemical. To be noted: 100 mM sodium phosphate pH 6.0, 25 °C; O2 as co-substrate; glycosylated enzyme; read-out: PeAAO2 from P. eryngii expressed in P. pastoris^a.

The target of data set [6] is T5, PeAAO2. Put plainly: direct UV assay of veratraldehyde formation at […] nm, Michaelis-Menten fit. The data set is classed as biochemical. The following applies: 100 mM sodium phosphate pH 6.0, 25 °C; O2 as co-substrate; glycosylated enzyme; read-out: PeAAO2 from P. eryngii expressed in P. pastoris^a.

Usually kcat stands for the maximal rate divided by the concentration of active sites. As usually defined, the kcat/Km is the second-order rate constant that governs catalysis at low substrate concentration. For PeAAO2 (Pleurotus eryngii), the Km was found to be 59.1 ± 3.0 µM in data set [1], 2740 ± 103 µM in data set [2], 143.6 ± 11.5 µM in data set [3] and 599.6 ± 18.7 µM in data set [4]. The kcat worked out at 35.5 ± 0.02 s⁻¹ in data set [1], 125.5 ± 0.1 s⁻¹ in data set [2], 68.8 ± 0.05 s⁻¹ in data set [3] and 12.8 ± 0.01 s⁻¹ in data set [4]. Moreover, the kcat/Km in data set [1] amounted to 600000 M⁻¹ s⁻¹; in data set [2], 45800 M⁻¹ s⁻¹; in data set [3] it was 479000 M⁻¹ s⁻¹; in data set [4], 21400 M⁻¹ s⁻¹.
Regarding `CC(C)c1ccc(CO)cc1` [Cumic alcohol], the Km in data set [5] was found to be 1910 ± 42.4 µM.
As to `COc1ccc(CO)cc1OC` [Veratryl alcohol], in data set [6], the Km stood at 447 ± 7.5 µM.
